Results reported in patent publication US20240002495A1 (MITSUBISHI TANABE PHARMA, published 2024).
Positions count from the first letter of the chain named.

T1: biotinylated 6His tag-AviTag-linked mature human IL-33 (residues 112 to 270) (human, UniProt O95760 112-270, biotin on the AviTag portion (BirA))
T1 construct: made in E. coli; also called biotinylated human IL-33 protein
T1 sequence: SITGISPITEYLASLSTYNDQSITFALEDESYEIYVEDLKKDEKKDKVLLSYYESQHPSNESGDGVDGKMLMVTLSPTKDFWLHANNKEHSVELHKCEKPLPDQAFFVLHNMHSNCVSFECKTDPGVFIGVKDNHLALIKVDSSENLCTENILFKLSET

T2: 6His-AviTag-linked cynomolgus monkey IL-33 (residues 112 to 269) (cynomolgus monkey, UniProt O95760 112-269 (human entry), biotin on the AviTag portion (BirA) in the SPR of Example 7; used without biotinylation in Example 10)
T2 construct: GenBank EHH57404 printed; also called cynomolgus monkey IL-33 protein; mature cynomolgus monkey IL-33
T2 chain: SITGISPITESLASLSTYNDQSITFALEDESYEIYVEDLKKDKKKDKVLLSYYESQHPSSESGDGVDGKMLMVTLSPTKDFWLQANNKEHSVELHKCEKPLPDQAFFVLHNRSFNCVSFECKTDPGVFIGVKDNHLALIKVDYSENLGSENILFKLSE

B1: A00-0036 (Fab) (Fab, V domains shown)
VH: EVQLLESGGGLVQPGGSLRLSCAASGFTFSNYYMHWVRQAPGKGLEWVSSISSSSSYIYYADSVKGRFTISRDNSKNTLYLQMNSLRAEDTAVYYCARLGTRHDAFDIWGQGTLVTVSS
VL: QSVLTQPPSASGTPGQRVTISCSGSSSNIGNNAVNWYQQLPGTAPKLLIYASNMRRLGVPDRFSGSKSGTSASLAISGLRSEDEADYYCAAWDDSQKAVVFGGGTKLTVL
notes: parental clone as Fab; also called V30; parental clone (Fab)
B2: A25-2C07 (Fab) (Fab, V domains shown)
VH: B1 VH with S53A, S54R, G100A, H103N, D104N
VL: B1 VL with R56G, L57S, A98G, V99Q
notes: Fab secreted by E. coli, tested as culture supernatant; also called V13
B3: A25-2C02 (Fab) (Fab, V domains shown)
VH: B1 VH with S53A, S54R, G100A, H103N, D104N
VL: B1 VL with N31R, R56V, L57S, A90W, A98V, V99G
notes: Fab secreted by E. coli, tested as culture supernatant; also called V15
B4: A26-2B01 (Fab) (Fab, V domains shown)
VH: B1 VH with S53A, S54R, G100A, D104N
VL: B1 VL with V99W
notes: Fab secreted by E. coli, tested as culture supernatant; also called V20
B5: A25-3H04 (Fab) (Fab, V domains shown)
VH: B1 VH with N31R, S53A, S54Q, Y57H, K65E, G100A, H103Q, D104N
VL: B1 VL with N31R, L57S, A90S, A98V
notes: Fab secreted by E. coli, tested as culture supernatant; also called V17
B6: A25-2E04 (Fab) (Fab, V domains shown)
VH: B1 VH with S53A, S54R, G100A, H103N, D104N
VL: B1 VL with S26C, N31R, R56V, L57I, A90E, A98G
notes: Fab secreted by E. coli, tested as culture supernatant; also called V11
B7: A23-1A05 (Fab) (Fab, V domains shown)
VH: B1 VH with S53A, S54R, S56R, I58H, G100A, D104N
VL: B1 VL with N35S, R56V, L57I, A90G, V99L
notes: Fab secreted by E. coli, tested as culture supernatant; also called V8
B8: A27-1C06 (Fab) (Fab, V domains shown)
VH: B1 VH with S53A, S54R, G100A, D104S
VL: B1 VL with A90G, V99F
notes: Fab secreted by E. coli, tested as culture supernatant; also called V22
B9: A26-2A05 (Fab) (Fab, V domains shown)
VH: B1 VH with S53A, S54R, G100A, D104G
VL: B1 VL with L57M, V99F
notes: Fab secreted by E. coli, tested as culture supernatant; also called V19
B10: A25-2D01 (Fab) (Fab, V domains shown)
VH: B1 VH with S53A, S54R, G100A, H103N, D104N
VL: B1 VL with N31R, R56V, L57I, V99W
notes: Fab secreted by E. coli, tested as culture supernatant; also called V9
B11: A25-2B02 (Fab) (Fab, V domains shown)
VH: B1 VH with S53A, S54R, G100A, H103N, D104N
VL: B1 VL with N31R, R56V, A90W
notes: Fab secreted by E. coli, tested as culture supernatant; also called V10
B12: A26-1F02 (Fab) (Fab, V domains shown)
VH: B1 VH with S53A, S54R, I58L, G100A, D104V
VL: B1 VL with L57P, A90E
notes: Fab secreted by E. coli, tested as culture supernatant; also called V18
B13: A25-3G05 (Fab) (Fab, V domains shown)
VH: B1 VH with N31H, S53A, S54L, K65R, G100A, H103R
VL: B1 VL with R56G, A90G, A98V, V99F
notes: Fab secreted by E. coli, tested as culture supernatant; also called V16
B14: A25-2C06 (Fab) (Fab, V domains shown)
VH: B1 VH with S53A, S54R, G100A, H103N, D104N
VL: B1 VL with N31R, R56V, L57I, A90G, A98R, V99Y
notes: Fab secreted by E. coli, tested as culture supernatant; also called V12
B15: A25-2H11 (Fab) (Fab, V domains shown)
VH: B1 VH with S53A, S54R, G100A, H103N, D104N
VL: B1 VL with N31S, N35S, R56G, L57S, A98V
notes: Fab secreted by E. coli, tested as culture supernatant; also called V14
B16: A28-1G07 (Fab) (Fab, V domains shown)
VH: B1 VH with S53A, S54R, I58R, G100A, D104S
VL: B1 VL with N31H, N35S, A90G, A98V
notes: Fab secreted by E. coli, tested as culture supernatant; also called V24
B17: A27-1A06 (Fab) (Fab, V domains shown)
VH: B1 VH with S53A, S54R, I58R, G100A, D104L
VL: B1 VL with L57P, A98V, V99F
notes: Fab secreted by E. coli, tested as culture supernatant; also called V21
B18: A28-1C08 (Fab) (Fab, V domains shown)
VH: B1 VH with N31R, S53A, S54R, G100A, H103R
VL: B1 VL with N31R, N35S, A90W
notes: Fab secreted by E. coli, tested as culture supernatant; also called V23
B19: A00-0070 (Fab) (Fab, V domains shown)
VH: EVQLLESGGGLVQPGGSLRLSCAASGFTFSDYYMNWVRQAPGKGLEWVSSISSSSSYIYYADSVKGRFTISRDNSKNTLYLQMNSLRAEDTAVYYCARDIGGMDVWGQGTLVTVSS
VL: QSVLTQPPSASGTPGQRVTISCTGSSSNIGAVYNVHWYQQLPGTAPKLLIYRNNQRPSGVPDRFSGSKSGTSASLAISGLRSEDEADYYCQSYDSSRWVFGGGTKLTVL
notes: parental clone as Fab; also called V29; parental clone (Fab)
B20: A13-1G05 (Fab) (Fab, V domains shown)
VH: B19 VH with M34V, S53R, S54Y, S56G, I58V
VL: B19 VL
notes: Fab secreted by E. coli, tested as culture supernatant; also called V7
B21: A13-1F07 (Fab) (Fab, V domains shown)
VH: B19 VH with D31V, S53R, S54Y, S56G, I58V
VL: B19 VL with S96R
notes: Fab secreted by E. coli, tested as culture supernatant; also called V6
B22: A10-1C04 (Fab) (Fab, V domains shown)
VH: B19 VH with S53R, S54Y
VL: B19 VL with N34D, S92T
notes: Fab secreted by E. coli, tested as culture supernatant; also called V1
B23: A12-1E04 (Fab) (Fab, V domains shown)
VH: B19 VH with S53R, S54Y, S56G, I58V
VL: B19 VL with N34D
notes: Fab secreted by E. coli, tested as culture supernatant; also called V2
B24: A13-1F05 (Fab) (Fab, V domains shown)
VH: B19 VH with S53R, S54Y, S56G
VL: B19 VL
notes: Fab secreted by E. coli, tested as culture supernatant; also called V5
B25: A12-1H08 (Fab) (Fab, V domains shown)
VH: B19 VH with N35D, S53R, S54A, I58V
VL: B19 VL
notes: Fab secreted by E. coli, tested as culture supernatant; also called V4
B26: A12-1H04 (Fab) (Fab, V domains shown)
VH: B19 VH with N35D, S53R, S54Y, S56G, I58V
VL: B19 VL
notes: Fab secreted by E. coli, tested as culture supernatant; also called V3

target: T1, biotinylated 6His tag-AviTag-linked …; assay: SPR, IL-33 on chip, Fab supernatant as analyte
Method: (§1) The library after the enrichment was used to construct a library of Escherichia coli secreting and expressing Fab. The culture supernatants of several hundreds of clones of Escherichia coli were subjected to measurement of dissociation rate constant (koff) by surface plasmon resonance (SPR) (ProteOn XPR36, available from Bio-Rad Laboratories, Inc.). The biotinylated human IL-33 protein (4 μg/mL) and cynomolgus monkey IL-33 protein (4 μg/mL) were loaded as ligands on a sensor chip (NLC sensor chip, available from Bio-Rad Laboratories, Inc.), to immobilize the human IL-33 protein at an amount equivalent to 1300 to 1600 RU, and the cynomolgus monkeyIL-33 protein at an amount equivalent to 1100 to 1500 RU. The culture supernatant of Escherichia coli was then loaded thereon as analyte to obtain a sensorgram with association phase of one minute and dissociation phase of 10 to 30 minutes. The sensorgram was subjected to interspot correction and blank correction using an SPR data analysis program (ProteOn Manager v3.1.0, available from Bio-Rad Laboratories, Inc.), and then values of koff were determined by off-rate analysis of Langmuir model.

| Human IL-33 Binding Amount (RU) | koff | Binder |
| --- | --- | --- |
| 78 RU | 0.0152 s⁻¹ | B1 |
| 334 RU | 3.41e-05 s⁻¹ | B2 |
| 930 RU | 1e-05 s⁻¹ | B3 |
| 364 RU | 1e-05 s⁻¹ | B4 |
| 0.62 RU | 1e-05 s⁻¹ | B5 |
| 195 RU | 1.27e-05 s⁻¹ | B6 |
| 52 RU | 1.58e-05 s⁻¹ | B7 |
| 294 RU | 1e-05 s⁻¹ | B8 |
| 153 RU | 1e-05 s⁻¹ | B9 |
| 950 RU | 1e-05 s⁻¹ | B10 |
| 256 RU | 1e-05 s⁻¹ | B11 |
| 96 RU | 1e-05 s⁻¹ | B12 |
| 135 RU | 1.34e-05 s⁻¹ | B13 |
| 480 RU | 1.36e-05 s⁻¹ | B14 |
| 534 RU | 1.22e-05 s⁻¹ | B15 |
| 165 RU | 1e-05 s⁻¹ | B16 |
| 306 RU | 1e-05 s⁻¹ | B17 |
| 156 RU | 1e-05 s⁻¹ | B18 |
| 571 RU | 0.00427 s⁻¹ | B19 |
| 59 RU | 1e-05 s⁻¹ | B20 |
| 112 RU | 1e-05 s⁻¹ | B21 |
| 26 RU | ≤ 1e-05 s⁻¹ | B22 |
| 414 RU | 2.19e-05 s⁻¹ | B23 |
| 127 RU | 1.32e-05 s⁻¹ | B24 |
| 77 RU | 1e-05 s⁻¹ | B25 |
| 94 RU | 1.94e-05 s⁻¹ | B26 |

Target: T2, 6His-AviTag-linked cynomolgus monkey …
Assay: SPR, IL-33 on chip, Fab supernatant as analyte
Method: as §1

| Cynomolgus Monkey IL-33 Binding Amount (RU) | koff | Binder |
| --- | --- | --- |
| 59 RU | 0.0347 s⁻¹ | B1 |
| 330 RU | 7.37e-05 s⁻¹ | B2 |
| 839 RU | 1e-05 s⁻¹ | B3 |
| 363 RU | 1e-05 s⁻¹ | B4 |
| 179 RU | 1e-05 s⁻¹ | B5 |
| 199 RU | 1e-05 s⁻¹ | B6 |
| 54 RU | 2.61e-05 s⁻¹ | B7 |
| 304 RU | 1.14e-05 s⁻¹ | B8 |
| 147 RU | 1e-05 s⁻¹ | B9 |
| 832 RU | 1e-05 s⁻¹ | B10 |
| 237 RU | 1e-05 s⁻¹ | B11 |
| 100 RU | 1e-05 s⁻¹ | B12 |
| 143 RU | 2.02e-05 s⁻¹ | B13 |
| 501 RU | 1.59e-05 s⁻¹ | B14 |
| 492 RU | 2.57e-05 s⁻¹ | B15 |
| 173 RU | 1.05e-05 s⁻¹ | B16 |
| 320 RU | 1e-05 s⁻¹ | B17 |
| 144 RU | 1e-05 s⁻¹ | B18 |
| 270 RU | 0.00522 s⁻¹ | B19 |
| 80 RU | 5.45e-05 s⁻¹ | B20 |
| 151 RU | 3.48e-05 s⁻¹ | B21 |
| 20 RU | 0.000165 s⁻¹ | B22 |
| 512 RU | 5.58e-05 s⁻¹ | B23 |
| 171 RU | 5.79e-05 s⁻¹ | B24 |
| 102 RU | 7.51e-05 s⁻¹ | B25 |
| 131 RU | 4.83e-05 s⁻¹ | B26 |
